Source: US12624075B2, “Immune inducer” (TORAY INDUSTRIES, INC., priority 2015, dated 2026)

How the values were obtained:
[1] = tested on: HLA-A0201-positive CD8-positive T cells; assay: IFN-γ-producing ability of HLA-A0201-positive CD8-positive T cells against polypeptide-pulsed dendritic cells (ELISA); type: cell-based, human; conditions: dendritic cells expressing HLA-A0201 pulsed with 10 μg/mL polypeptide, 24 hours, FIG. 2
Procedure: Peripheral blood was separated from the blood of an HLA-A0201-positive healthy individual. The peripheral blood was layered on Lymphocyte separation medium (Organon Teknika Corporation, Durham, NC), and then centrifuged at 1,500 rpm at room temperature for 20 minutes. A PBMC-containing fraction was collected and washed 3 times (or more) with a cold phosphate buffer solution to obtain PBMCs. The thus obtained PBMCs were suspended in 20 mL of AIM-V medium (manufactured by Life Technologies, Inc.), and allowed to adhere to a culture flask (manufactured by Falcon Plastics Co.) for 2 hours under the conditions of 37° C. and 5% CO2. Non-adherent cells were used for the preparation of T cells, and adherent cells were used for the preparation of dendritic cells.
The adherent cells were cultured in AIM-V medium in the presence of IL-4 (1,000 U/ml) and GM-CSF (1,000 U/ml). Six days later, the medium was replaced with AIM-V medium supplemented with IL-4 (1,000 U/mL), GM-CSF (1,000 U/mL), IL-6 (1,000 U/mL, manufactured by Genzyme Corporation), IL-1B (10 ng/ml, manufactured by Genzyme Corporation) and TNF-α (10 ng/ml, manufactured by Genzyme Corporation), and the cells were cultured for another 2 days. The resulting population of the non-adherent cells was used as the dendritic cells.
The thus prepared dendritic cells were suspended in AIM-V medium at a cell density of 1×10^6 cells/mL. […]

14 types of cancer cells = assay: Direct exposure of cancer cells to the polypeptides (direct killing); type: cell-based, human; conditions: cancer cells exposed to the polypeptides or protein without T cells

B1: full-length PDS5A protein: human PDS5A protein of 1337 amino acid residues, prepared according to Example 5 in WO 2011/027807; Comparative Example (protein, listed as Homo sapiens)
chain: MDFTAQPKPATALCGVVSADGKIAYPPGVKEITDKITTDEMIKRLKMVVKTFMDMDQDSEDEKQQYLPLALHLASEFFLRNPNKDVRLLVACCLADIFRIYAPEAPYTSHDKLKDIFLFITRQLKGLEDTKSPQFNRYFYLLENLAWVKSYNICFELEDCNEIFIQLFRTLFSVINNSHNKKVQMHMLDLMSSIIMEGDGVTQELLDSILINLIPAHKNLNKQSFDLAKVLLKRTVQTIEACIANFFNQVLVLGRSSVSDLSEHVFDLIQELFAIDPHLLLSVMPQLEFKLKSNDGEERLAVVRLLAKLFGSKDSDLATQNRPLWQCFLGRFNDIHVPVRLESVKFASHCLMNHPDLAKDLTEYLKVRSHDPEEAIRHDVIVTIITAAKRDLALVNDQLLGFVRERTLDKRWRVRKEAMMGLAQLYKKYCLHGEAGKEAAEKVSWIKDKLLHIYYQNSIDDKLLVEKIFAQYLVPHNLETEERMKCLYYLYASLDPNAVKALNEMWKCQNMLRSHVRELLDLHKQPTSEANCSAMFGKLMTIAKNLPDPGKAQDFVKKFNQVLGDDEKLRSQLELLISPTCSCKQADICVREIARKLANPKQPTNPFLEMVKFLLERIAPVHIDSEAISALVKLMNKSIEGTADDEEEGVSPDTAIRSGLELLKVLSFTHPTSFHSAETYESLLQCLRMEDDKVAEAAIQIFRNTGHKIETDLPQIRSTLIPILHQKAKRGTPHQAKQAVHCIHAIFTNKEVQLAQIFEPLSRSLNADVPEQLITPLVSLGHISMLAPDQFASPMKSVVANFIVKDLLMNDRSTGEKNGKLWSPDEEVSPEVLAKVQAIKLLVRWLLGMKNNQSKSANSTLRLLSAMLVSEGDLTEQKRISKSDMSRLRLAAGSAIMKLAQEPCYHEIITPEQFQLCALVINDECYQVRQIFAQKLHKALVKLLLPLEYMAIFALCAKDPVKERRAHARQCLLKNISIRREYIKQNPMATEKLLSLLPEYVVPYMIHLLAHDPDFTRSQDVDQLRDIKECLWFMLEVLMTKNENNSHAFMKKMAENIKLTRDAQSPDESKTNEKLYTVCDVALCVINSKSALCNADSPKDPVLPMKFFTQPEKDFCNDKSYISEETRVLLLTGKPKPAGVLGAVNKPLSATGRKPYVRSTGTETGSNINVNSELNPSTGNRSREQSSEAAETGVSENEENPVRIISVTPVKNIDPVKNKEINSDQATQGNISSDRGKKRTVTAAGAENIQQKTDEKVDESGPPAPSKPRRGRRPKSESQGNATKNDDLNKPINKGRKRAAVGQESPGGLEAGNAKAPKLQDLAKKAAPAERQIDLQR
With B1 the “amount of IFN-γ produced” value [1] was “low” and the “activity to directly kill the cancer cells” value (14 types of cancer cells) was “no cancer cells were killed at all”.
